From the supplement of paper PMC9112550, “Optimization of the antimicrobial peptide Bac7 by deep mutational scanning” (BMC Biology, 2022)

System: Escherichia coli TOP10
Experiment: shrunken log2 fold change of peptide-encoding DNA abundance (4.5 h post-induction vs induction); higher = less antimicrobial activity (less host growth inhibition)
Conditions: time post-induction: 4.5 h; library: site-saturation at positions 5, 18, 19, 20
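Note: peptides expressed intracellularly from a pBAD plasmid library in pooled LB shake-flask culture, induced with 0.3% L-arabinose, DNA abundance read by NGS, three biological replicates, DESeq2 with apeglm shrinkage.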

Sequence | shrunken log2 fold change
RRIRVRPPRLPRPRPRPKVIPRP | -0.21
RRIRVRPPRLPRPRPRPKVNPRP | -0.288
RRIRVRPPRLPRPRPRPKYVPRP | -0.163
RRIRVRPPRLPRPRPRPLCHPRP | -0.364
RRIRVRPPRLPRPRPRPLCKPRP | -0.394
RRIRVRPPRLPRPRPRPLEGPRP | 0.138
RRIRVRPPRLPRPRPRPLFCPRP | -0.103
RRIRVRPPRLPRPRPRPLGGPRP | 0.27
RRIRVRPPRLPRPRPRPLHEPRP | -0.0936
RRIRVRPPRLPRPRPRPLISPRP | -0.0293
RRIRVRPPRLPRPRPRPLIVPRP | -0.335
RRIRVRPPRLPRPRPRPLKDPRP | -0.242
RRIRVRPPRLPRPRPRPLKIPRP | -0.0769
RRIRVRPPRLPRPRPRPLLKPRP | 0.0167
RRIRVRPPRLPRPRPRPLLVPRP | -0.101
RRIRVRPPRLPRPRPRPLMDPRP | -0.0628
RRIRVRPPRLPRPRPRPLNEPRP | -0.0647
RRIRVRPPRLPRPRPRPLNGPRP | 0.103
RRIRVRPPRLPRPRPRPLQHPRP | -0.177
RRIRVRPPRLPRPRPRPLQIPRP | -0.0888
RRIRVRPPRLPRPRPRPLRLPRP | 0.641
RRIRVRPPRLPRPRPRPLRRPRP | 0.644
RRIRVRPPRLPRPRPRPLSAPRP | -0.0281
RRIRVRPPRLPRPRPRPLSNPRP | -0.413
RRIRVRPPRLPRPRPRPLSPPRP | -0.172

Sequence | shrunken log2 fold change
RRIRVRPPRLPRPRPRPLSQPRP | -0.032
RRIRVRPPRLPRPRPRPLVQPRP | -0.137
RRIRVRPPRLPRPRPRPLYAPRP | -0.154
RRIRVRPPRLPRPRPRPMCNPRP | -0.263
RRIRVRPPRLPRPRPRPMDPPRP | -0.56
RRIRVRPPRLPRPRPRPMEDPRP | 0.0593
RRIRVRPPRLPRPRPRPMEPPRP | 0.0643
RRIRVRPPRLPRPRPRPMFFPRP | -0.333
RRIRVRPPRLPRPRPRPMFHPRP | -0.22
RRIRVRPPRLPRPRPRPMHEPRP | -0.044
RRIRVRPPRLPRPRPRPMHQPRP | 0.02
RRIRVRPPRLPRPRPRPMHTPRP | 0.0814
RRIRVRPPRLPRPRPRPMIAPRP | 0.261
RRIRVRPPRLPRPRPRPMKVPRP | -0.194
RRIRVRPPRLPRPRPRPMMIPRP | -0.131
RRIRVRPPRLPRPRPRPMNQPRP | -0.0672
RRIRVRPPRLPRPRPRPMNWPRP | -0.474
RRIRVRPPRLPRPRPRPMPCPRP | 0.118
RRIRVRPPRLPRPRPRPMPVPRP | 0.00602
RRIRVRPPRLPRPRPRPMQLPRP | -0.0252
RRIRVRPPRLPRPRPRPMQRPRP | -0.0413
RRIRVRPPRLPRPRPRPMRAPRP | 0.71
RRIRVRPPRLPRPRPRPMRSPRP | 0.604
RRIRVRPPRLPRPRPRPMSQPRP | -0.296
RRIRVRPPRLPRPRPRPMTMPRP | -0.0831

Sequence | shrunken log2 fold change
RRIRVRPPRLPRPRPRPMVPPRP | -0.189
RRIRVRPPRLPRPRPRPNCFPRP | -0.158
RRIRVRPPRLPRPRPRPNCNPRP | -0.273
RRIRVRPPRLPRPRPRPNCWPRP | 0.0329
RRIRVRPPRLPRPRPRPNDQPRP | -0.0759
RRIRVRPPRLPRPRPRPNEQPRP | -0.232
RRIRVRPPRLPRPRPRPNFTPRP | 0.0054
RRIRVRPPRLPRPRPRPNGRPRP | 0.222
RRIRVRPPRLPRPRPRPNHLPRP | -0.694
RRIRVRPPRLPRPRPRPNHYPRP | -0.501
RRIRVRPPRLPRPRPRPNIMPRP | -0.512
RRIRVRPPRLPRPRPRPNITPRP | -0.808
RRIRVRPPRLPRPRPRPNKLPRP | -0.325
RRIRVRPPRLPRPRPRPNKTPRP | 0.172
RRIRVRPPRLPRPRPRPNMRPRP | -0.124
RRIRVRPPRLPRPRPRPNNFPRP | 1.9
RRIRVRPPRLPRPRPRPNNHPRP | -0.454
RRIRVRPPRLPRPRPRPNNNPRP | -0.661
RRIRVRPPRLPRPRPRPNQAPRP | 0.0159
RRIRVRPPRLPRPRPRPNQFPRP | -0.349
RRIRVRPPRLPRPRPRPNQKPRP | -0.115
RRIRVRPPRLPRPRPRPNQRPRP | 0.0593
RRIRVRPPRLPRPRPRPNSIPRP | 0.0266
RRIRVRPPRLPRPRPRPNSMPRP | -0.575
RRIRVRPPRLPRPRPRPNSSPRP | -0.0634
